Measured values as given in patent US20210355194A1 (TWIST BIOSCIENCE, published 2021).
Where a chain is given by its changes, count along the chain named. Values joined by “and” are separate entries in the source; they are usually repeats but may differ in a detail not shown here. Equal entries are not always repeated. Where two headings read alike, the source gives them in different places.

Columns and labels:
SARS-CoV-2 S1 protein [1] = target: T1, SARS-CoV-2 S1 protein (SARS-CoV-2, UniProt P0DTC2 16-685)
SARS-CoV-2 S1 protein [2] = target: T1, SARS-CoV-2 S1 protein; remark: listed apart in the source
human ACE2 [3] = target: T2, human ACE2 (human, UniProt Q9BYF1 18-740)
T2 sequence (Q9BYF1 18-740 limits assumed): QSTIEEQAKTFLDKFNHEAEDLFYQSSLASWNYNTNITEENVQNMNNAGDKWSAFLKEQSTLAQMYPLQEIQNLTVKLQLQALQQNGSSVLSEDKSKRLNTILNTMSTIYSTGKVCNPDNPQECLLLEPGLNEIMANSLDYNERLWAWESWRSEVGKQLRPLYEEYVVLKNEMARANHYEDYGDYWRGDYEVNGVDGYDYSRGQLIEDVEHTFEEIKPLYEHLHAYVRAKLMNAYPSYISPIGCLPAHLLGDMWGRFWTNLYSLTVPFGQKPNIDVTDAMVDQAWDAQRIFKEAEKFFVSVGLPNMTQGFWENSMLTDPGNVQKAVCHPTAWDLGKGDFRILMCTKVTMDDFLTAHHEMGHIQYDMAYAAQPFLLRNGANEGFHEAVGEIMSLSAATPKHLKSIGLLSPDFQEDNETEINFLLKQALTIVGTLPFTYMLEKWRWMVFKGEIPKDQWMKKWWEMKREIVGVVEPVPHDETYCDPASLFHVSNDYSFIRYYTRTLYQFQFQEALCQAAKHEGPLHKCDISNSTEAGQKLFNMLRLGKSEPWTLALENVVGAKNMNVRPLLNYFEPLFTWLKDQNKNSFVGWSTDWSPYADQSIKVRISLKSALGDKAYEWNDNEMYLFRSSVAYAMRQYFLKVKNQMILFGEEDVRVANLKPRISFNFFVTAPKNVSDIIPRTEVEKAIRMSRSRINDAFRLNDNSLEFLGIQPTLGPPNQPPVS

human ACE2 [4] = target: T2, human ACE2; remark: listed apart in the source
SARS-CoV-2 S1 protein [5] = target: T1, SARS-CoV-2 S1 protein; assay: phage ELISA screen on S1, mean
SARS-CoV-2 S1 protein [6] = target: T1, SARS-CoV-2 S1 protein; assay: inhibitor ELISA, competitor ACE2
SARS-CoV-2 S1 protein [7] = target: T1, SARS-CoV-2 S1 protein; assay: phage ELISA screen on S1, mean; remark: listed apart in the source
SARS-CoV-2 S1 protein [8] = target: T1, SARS-CoV-2 S1 protein; assay: Carterra SPR, DB format, S1
SARS-CoV-2 S1 protein [9] = target: T1, SARS-CoV-2 S1 protein; assay: Carterra SPR, Fc capture, S1
SARS-CoV-2 S1 protein [10] = target: T1, SARS-CoV-2 S1 protein; assay: inhibitor ELISA, competitor ACE2; remark: listed apart in the source
SARS-CoV-2 S1 protein [11] = target: T1, SARS-CoV-2 S1 protein; assay: ELISA binding titration on coated antigen
[12] = target: T3, SARS-CoV-2 S protein RBD, SPD-C5259 (SARS-CoV-2, UniProt P0DTC2 319-537); assay: FACS, inhibition of S protein RBD binding to Vero cells
T3 construct: domain: RBD

[13] = target: T4, SARS-CoV-2 antigen of the epitope binning (SARS-CoV-2, UniProt P0DTC2 16-685); assay: epitope binning; competitor 2-11
T4 construct: also called S1

[14] = target: T4, SARS-CoV-2 antigen of the epitope …; assay: epitope binning; competitor 1-32
[15] = target: T4, SARS-CoV-2 antigen of the epitope …; assay: epitope binning; competitor 1-16
[16] = target: T4, SARS-CoV-2 antigen of the epitope …; assay: epitope binning; competitor Acro mAb
S protein trimer = S protein trimer (SARS-CoV-2, UniProt P0DTC2 14-1208); assay: ELISA, plate coated with S protein trimer
[17] = target: T4, SARS-CoV-2 antigen of the epitope …; assay: epitope binning; competitor 2-5
[18] = target: T4, SARS-CoV-2 antigen of the epitope …; assay: epitope binning; competitor 2-2
[19] = target: T4, SARS-CoV-2 antigen of the epitope …; assay: epitope binning; competitor 2-6
[20] = target: T5, SARS-CoV-2 Spike Glycoprotein S1 (SARS-CoV-2, UniProt P0DTC2 16-685); assay: ELISA, plate coated with S1
T5 construct: also called S1 Monomer

[21] = target: T4, SARS-CoV-2 antigen of the epitope …; assay: epitope binning; competitor 1-35
[22] = target: T4, SARS-CoV-2 antigen of the epitope …; assay: epitope binning; competitor 2-8
[23] = target: T4, SARS-CoV-2 antigen of the epitope …; assay: epitope binning; competitor CR3022
SARS-CoV-2 S1 protein [24] = target: T1, SARS-CoV-2 S1 protein; assay: Carterra SPR, direct capture (DC), S1

B1: 2-9 (antibody, V domains shown)
VH: EVQLLESGGGLVQPGGSLRLSCAASGFTFPRYAMSWVRQAPGKGLEWVSTISGSGSTTYYADSVKGRFTISRDNSKNTLYLQMNSLRAEDTAVYYCARLIDAFDIWGQGTLVTVSS
VL: DIQMTQSPSSLSASVGDRVTITCRASQRIGTYLNWYQQKPGKAPKLLIYAASNLEGGVPSRFSGSGSGTDFTLTISSLQPEDFATYYCQQNYSTTWTFGQGTKVEIK
notes: also called variant 2-9
IC50 (SARS-CoV-2 S1 protein [1]): 23.2 nM
EC50 (SARS-CoV-2 S1 protein [2]): 12.6 nM

B2: 4-17 (VHH)
VHH: EVQLVESGGGLVQPGGSLRLSCAASGQLANFASYAMGWFRQAPGKEREFVAAITRSGSSTVYADSVKGRFTISADNSKNTAYLQMNSLKPEDTAVYYCATTMNPNPRWGQGTLVTVSS
Kd (human ACE2 [3]): 18.8 nM and 30.6 nM
IC50 (human ACE2 [4]): 0.721 nM

B3: 2-16 (antibody, V domains shown)
VH: EVQLLESGGGLVQPGGSLRLSCAASGFTFSSYAMSWVRQAPGKGLEWVSVISGSGGSTYYADSVKGRFTISRDNSKNTLYLQMNSLRAEDTAVYYCAREGYRDYLWYFDLWGQGTLVTVSS
VL: DIQMTQSPSSLSASVGDRVTITCTGTSSDVGSYDLVSWYQQKPGKAPKLLIYEGNKRPSGVPSRFSGSGSGTDFTLTISSLQPEDFATYYCCSYAGSSVVFGQGTKVEIK
notes: also called variant 2-16
ELISA(Avg) (SARS-CoV-2 S1 protein [5]): 7.1 fold over background
IC50 (SARS-CoV-2 S1 protein [6]): 433 nM
ELISA(Avg) (SARS-CoV-2 S1 protein [7]): 7.1 fold over background

B4: 2-2 (antibody, V domains shown)
VH: EVQLLESGGGLVQPGGSLRLSCAASGFTFSRHAMNWVRQAPGKGLEWVSGISGSGDETYYADSVKGRFTISRDNSKNTLYLQMNSLRAEDTAVYYCARDLPASYYDSSGYYWHNGMDVWGQGTLVTVSS
VL: DIQMTQSPSSLSASVGDRVTITCRASQTINTYLNWYQQKPGKAPKLLIYSASTLQSGVPSRFSGSGSGTDFTLTISSLQPEDFATYYCQQSYSTFTFGQGTKVEIK
notes: also called variant 2-2
Kd (SARS-CoV-2 S1 protein [8]): 11.7 nM
Kd (SARS-CoV-2 S1 protein [9]): 58.3 nM
IC50 (SARS-CoV-2 S1 protein [10]): 3.6 nM
EC50 (SARS-CoV-2 S1 protein [11]): 0.612 nM
ELISA(Avg) (SARS-CoV-2 S1 protein [7]): 23.4 fold over background

B5: 2-2 (antibody, V domains shown)
VH: B4 VH
VL: B4 VL
IC50 [12]: 3 nM
epitope binning score [13]: 0
epitope binning score [14]: 2
epitope binning score [15]: 0
epitope binning score [16]: 0
S Trimer (S protein trimer): 0.64 nM
epitope binning score [17]: 0
epitope binning score [18]: 0
epitope binning score [19]: 2
S1 Monomer [20]: 0.13 nM
epitope binning score [21]: 1
epitope binning score [22]: 0
epitope binning score [23]: 0

B6: 2-5 (antibody, V domains shown)
VH: EVQLLESGGGLVQPGGSLRLSCAASGFTFSDFAMAWVRQAPGKGLEWVSAISGSGDITYYADSVKGRFTISRDNSKNTLYLQMNSLRAEDTAVYYCAREADGLHSPWHFDLWGQGTLVTVSS
VL: DIQMTQSPSSLSASVGDRVTITCRASQSIHTYLNWYQQKPGKAPKLLIYAASALASGVPSRFSGSGSGTDFTLTISSLQPEDFATYYCQQSYSAPPYTFGQGTKVEIK
notes: also called variant 2-5
Kd (SARS-CoV-2 S1 protein [8]): 2.8 nM
Kd (SARS-CoV-2 S1 protein [9]): 1.9 nM
IC50 (SARS-CoV-2 S1 protein [10]): 4.2 nM
EC50 (SARS-CoV-2 S1 protein [11]): 0.133 nM
ELISA(Avg) (SARS-CoV-2 S1 protein [7]): 30.8 fold over background

B7: 2-8 (antibody, V domains shown)
VH: B6 VH
VL: B6 VL with H30D
notes: also called variant 2-8
Kd (SARS-CoV-2 S1 protein [9]): 52.8 nM
IC50 (SARS-CoV-2 S1 protein [10]): 12.2 nM
EC50 (SARS-CoV-2 S1 protein [11]): 0.08 nM
ELISA(Avg) (SARS-CoV-2 S1 protein [7]): 32.4 fold over background
Kd (SARS-CoV-2 S1 protein [24]): 33.4 nM

B8: 2-4 (antibody, V domains shown)
VH: B6 VH
VL: B6 VL with H30D
IC50 [12]: 46.3 nM
S Trimer (S protein trimer): 10.2 nM
S1 Monomer [20]: 1.58 nM

B9: 2-8 (antibody, V domains shown)
VH: B6 VH
VL: B6 VL with H30D
IC50 [12]: 19.5 nM
epitope binning score [13]: 1
epitope binning score [14]: 1
epitope binning score [15]: 1
epitope binning score [16]: 1
S Trimer (S protein trimer): 7.08 nM
epitope binning score [17]: 0
epitope binning score [18]: 0
epitope binning score [19]: 1
S1 Monomer [20]: 1.52 nM
epitope binning score [21]: 1
epitope binning score [22]: 0
epitope binning score [23]: 0

B10: 2-5 (antibody, V domains shown)
VH: B6 VH
VL: B6 VL
IC50 [12]: 4.4 nM
epitope binning score [13]: 1
epitope binning score [14]: 1
epitope binning score [15]: 1
epitope binning score [16]: 1
S Trimer (S protein trimer): 0.59 nM
epitope binning score [17]: 0
epitope binning score [18]: 0
epitope binning score [19]: 1
S1 Monomer [20]: 0.17 nM
epitope binning score [21]: 1
epitope binning score [22]: 0
epitope binning score [23]: 0

B11: 4-140 (VHH)
VHH: EVQLVESGGGLVQPGGSLRLSCAASGRTFSNAAMGWFRQAPGKEREFVARITWNGGSTFYADSVKGRFTISADNSKNTAYLQMNSLKPEDTAVYYCATTENPNPRWGQGTLVTVSS
Kd (human ACE2 [3]): 8.9 nM
IC50 (human ACE2 [4]): 3.07 nM

B12: 4-39 (VHH)
VHH: B11 VHH with T52L, N54T, G56A, T58R, F59N
Kd (human ACE2 [3]): 17.5 nM
IC50 (human ACE2 [4]): 1.15 nM

B13: 4-101 (VHH)
VHH: B11 VHH with T52L, N54T, G56A, T58R, F59S
Kd (human ACE2 [3]): 5.8 nM
IC50 (human ACE2 [4]): 0.568 nM

B14: 4-54 (VHH)
VHH: EVQLVESGGGLVQPGGSLRLSCAASGRTFSDARMGWFRQAPGKEREFVGAVSWSGGTTVYADSVKGRFTISADNSKNTAYLQMNSLKPEDTAVYYCATTEDPYPRWGQGTLVTVSS
Kd (human ACE2 [3]): 645 nM
IC50 (human ACE2 [4]): 2 nM
